# Experimental data from IntAct's records for PubMed 15020713.
# B1: EH domain-containing protein 1 (Homo sapiens), Q9H4M9 (parent)
# chain: MFSWVSKDARRKKEPELFQTVAEGLRQLYAQKLLPLEEHYRFHEFHSPALEDADFDNKPMVLLVGQYSTGKTTFIRHLIEQDFPGMRIGPEPTTDSFIAVMHGPTEGVVPGNALVVDPRRPFRKLNAFGNAFLNRFMCAQLPNPVLDSISIIDTPGILSGEKQRISRGYDFAAVLEWFAERVDRIILLFDAHKLDISDEFSEVIKALKNHEDKIRVVLNKADQIETQQLMRVYGALMWSLGKIINTPEVVRVYIGSFWSHPLLIPDNRKLFEAEEQDLFKDIQSLPRNAALRKLNDLIKRARLAKVHAYIISSLKKEMPNVFGKESKKKELVNNLGEIYQKIEREHQISPGDFPSLRKMQELLQTQDFSKFQALKPKLLDTVDDMLANDIARLMVMVRQEESLMPSQVVKGGAFDGTMNGPFGHGYGEGAGEGIDDVEWVVGKDKPTYDEIFYTLSPVNGKITGANAKKEMVKSKLPNTVLGKIWKLADVDKDGLLDDEEFALANHLIKVKLEGHELPADLPPHLVPPSKRRHE
# partner: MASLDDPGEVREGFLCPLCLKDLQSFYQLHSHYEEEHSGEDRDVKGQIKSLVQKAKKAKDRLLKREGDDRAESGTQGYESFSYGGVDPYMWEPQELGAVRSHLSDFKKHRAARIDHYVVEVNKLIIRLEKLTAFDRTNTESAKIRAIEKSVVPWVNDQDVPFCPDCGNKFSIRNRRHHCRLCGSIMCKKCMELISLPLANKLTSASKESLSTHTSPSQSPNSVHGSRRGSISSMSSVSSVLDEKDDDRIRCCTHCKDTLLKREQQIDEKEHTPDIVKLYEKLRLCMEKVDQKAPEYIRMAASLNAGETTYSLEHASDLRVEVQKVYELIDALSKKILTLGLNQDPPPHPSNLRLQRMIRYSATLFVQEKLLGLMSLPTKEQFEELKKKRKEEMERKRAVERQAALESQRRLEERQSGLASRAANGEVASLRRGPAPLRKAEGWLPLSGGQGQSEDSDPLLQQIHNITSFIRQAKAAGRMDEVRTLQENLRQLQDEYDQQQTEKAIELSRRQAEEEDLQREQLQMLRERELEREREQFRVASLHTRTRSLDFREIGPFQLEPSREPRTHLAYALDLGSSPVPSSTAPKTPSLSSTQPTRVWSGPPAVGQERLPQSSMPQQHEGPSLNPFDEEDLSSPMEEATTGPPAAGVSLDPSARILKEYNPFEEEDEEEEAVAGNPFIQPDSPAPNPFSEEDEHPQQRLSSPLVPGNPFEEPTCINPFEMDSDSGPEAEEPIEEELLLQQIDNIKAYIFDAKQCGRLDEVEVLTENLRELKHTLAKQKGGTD
# B2: Rabenosyn-5 (Homo sapiens), Q9H1K0 (parent)
# chain: B1 partner
# partner: B1 chain
# Variants of: B1
# Settings: with rbns5_human RBSN
row,effect of a mutation on the interaction,Variant
1,disrupting interaction,MFSWVSKDARRKKEPELFQTVAEGLRQLYAQKLLPLEEHYRFHEFHSPALEDADFDNKPMVLLVGQYSTGKTTFIRHLIEQDFPGMRIGPEPTTDSFIAVMHGPTEGVVPGNALVVDPRRPFRKLNAFGNAFLNRFMCAQLPNPVLDSISIIDTPGILSGEKQRISRGYDFAAVLEWFAERVDRIILLFDAHKLDISDEFSEVIKALKNHEDKIRVVLNKADQIETQQLMRVYGALMWSLGKIINTPEVVRVYIGSFWSHPLLIPDNRKLFEAEEQDLFKDIQSLPRNAALRKLNDLIKRARLAKVHAYIISSLKKEMPNVFGKESKKKELVNNLGEIYQKIEREHQISPGDFPSLRKMQELLQTQDFSKFQALKPKLLDTVDDMLANDIARLMVMVRQEESLMPSQVVKGGAFDGTMNGPFGHGYGEGAGEGIDDVEWVVGKDKPTYDEIFYTLSPVNGKITGANAKKEMVKSKLPNTVLGKIAKLADVDKDGLLDDEEFALANHLIKVKLEGHELPADLPPHLVPPSKRRHE [W485A]

# Variants of: B2
# Settings: with ehd1_human EHD1, Q9H4M9
row,effect of a mutation on the interaction,Variant
1,decreasing interaction strength,N626A;F628A
2,decreasing interaction strength,N662A;F664A
3,disrupting interaction strength,N626A;F628A;N662A;F664A
